In patent publication US20200131263A1:

Target: cynomolgus GITR (cyno-GITR) (cynomolgus)
Experiment: ELISA, cyno GITR coated at 1 ug/ml

Substance: reference antibody BMAB (Merck's MK-4166 antibody)
- EC50: 0.269 nM
